Data as given in paper PMC10349087 (Nature Communications, 2023).

molecular target: SARS-CoV-2 spike receptor-binding domain, ancestral (amino acids 331-529), biotinylated (SARS-CoV-2, ancestral (Wuhan), UniProt P0DTC2, biotin (RBD expression vector co-expressed with BirA-Flag, 100 μM biotin added)); experiment: BLI; conditions: both partners purified

| Binder | Kd | koff | kon |
| --- | --- | --- | --- |
| NIV-10 Fab (Fab, V domains shown) VH: EVQLVESGGGLVQPGGSLRLSCAASGFTFYSYWMTWVRQAPGKGLEWVANIKHDESESHYVDSVRGRFTISRDNAKNSVYLQMKGLRAEDTAVYYCARDGGYNILTAYYHAPSYWGQGTLVTVSS VL: QSALTQPASVSGSPGQSITISCTGTSSDVGGYNFVSWYRQYPGKAPQLMIYDVSRRPSGDSDRFSGSKSGNTASLTISGLQAEDEAEYHCSSYTGRSPYVVFGGGTKVTVL | 5.42 pM | 1.24e-06 s⁻¹ | 223000 M⁻¹ s⁻¹ |
| NIV-13 Fab (Fab, V domains shown) VH: EVQLLESGGGLVQPGGSLRLSCAASGFTFSRYALSWVRQAPGKGLEWVSAISGAAITTYYADSVKGRFTISRDDSRNTLFMQMDSLRAEDTAVYYCAKGDYYDSSGYLAEYFPHWGQGTLVTVSS VL: SYELTQPPSVSVSPGQTARITCFADALPKQHAYWYQQKAGQAPVLVIFKDTERPSGIPKRFSGSRSGATVTLTISGVQAEDEADYYCQSTDISGVLFGGGTKLTVL | 7.33 pM | 1.19e-06 s⁻¹ | 163000 M⁻¹ s⁻¹ |
| NIV-8 Fab (Fab, V domains shown) VH: EVQLVESGGGVVQPGRSLRLSCAASGFKFSKFAMHWVRQAPGKGPEWVAVISYDGNQYHSADSVKGRFTISRDNSFNTLYLQMNSLGPEDTAVYYCARDGPDTSGYYANIYFDFWGQGTLVTVSS VL: QSVLTQPPSVSGAPGQRVTISCTGSSSNIGAGYDVHWYQQLPGRAPKLLIFDNNNRPSGVPDRFSGSKSGTSASLAITGLQTEDEAYYYCQSYDNSLILAVFGGGTKVTVL | 10.9 pM | 1.15e-06 s⁻¹ | 106000 M⁻¹ s⁻¹ |
| NIV-11 Fab (Fab, V domains shown) VH: QLVQSGPEVKKPGTSVKVSCKASGFTFYYSAVQWVRQARGQRLEWLGWMAVGSGKANYAQKFQERLTLTRDMSTSTAYMELSSLRSEDTAVYYCAAPNCTGGSCYDGFNLWGQGTVVTVSS VL: EIVLTQSPGTLSLSPGDRAILSCRASQTVNSNYLAWYQQKPGQAPRLLIYGTSSRATGIPDRFSGSGSGTDFTLTISRLEPEDFAVYYCQQYGSSPWLFGQGTKVEIK | 20.8 pM | 1.12e-06 s⁻¹ | 53600 M⁻¹ s⁻¹ |
